# Experimental data from the supplement of paper PMC12042874.
# ± gives the uncertainty stated by the source.
# Test: amyloid nucleation score (Sup35N fusion, yeast selection) (log enrichment); library NNK1; higher = more nucleation; inactive = no reads after selection
# Method in brief: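 The nucleation score equals the log enrichment of output over input reads from DiMSum, centred on the mode score of non-aggregating sequences. It was computed only for sequences with 100 or more input reads. The reads came from Illumina sequencing of plasmid inserts from psi-negative yeast expressing Sup35N fused to peptides of 20 random codons, induced with 100 μM copper sulfate for 24 hours and grown 7 days at 30°C without adenine and uracil.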
row,Substance,amyloid nucleation score
1,DVFRML,inactive
2,DVLLCSIRTSSHDMIIMRKR,0.553 ± 0.65
3,DVSLNVNLYVHRFMCHQVPI,0.515 ± 0.28
4,DVSNTVFFTLLYLLGPRCRS,0.721 ± 0.38
5,DVSVT,inactive
6,DVVEYVIWSYTWMNLAHYCR,0.136 ± 0.24
7,DWGKSSPLLKVLLMQSRLPC,-0.073 ± 0.45
8,DWRMWGF,-0.865 ± 0.69
9,DYGIWELSINMSVKYLCWLP,1.27 ± 0.13
10,DYGKSCRIALYGYYDRWCTG,0.797 ± 0.48
11,DYKHNPKWKMCKCLLAIRNY,1.53 ± 0.51
12,DYNWSCFH,1.28 ± 0.69
13,DYYVVLDMQQVFEGGCRFFR,0.498 ± 0.46
14,EACNNQNFCRTSNGESSTTV,0.324 ± 0.75
15,EAGKLL,0.309 ± 0.32
16,EAGNTDSAINGVRAKDGS,1.15 ± 0.69
17,EAVRWRGRNVRNLFWDN,0.03 ± 0.35
18,ECGVFQVKTAGIGS,-0.425 ± 0.8
19,ECMGGVAIARNFATI,-1.11 ± 2.7
20,ECMVYDYNYWVHVYGITYCC,0.242 ± 0.35
21,ECSGVNLNTSYLPGVQEATM,0.715 ± 0.2
22,EDAWGIIEEIIGWRGCGRLA,-0.84 ± 0.74
23,EDDLN,0.271 ± 0.38
24,EDFLYMCFRLSFVIIH,3.42 ± 0.12
25,EDWHVDSFGFSKTSMGTRRL,2.49 ± 0.14

row,Substance,amyloid nucleation score
1,EEWFETGCENGCNVEGNRSC,-0.117 ± 0.57
2,EFAYQV,-0.552 ± 1.5
3,EFEWNLFPICNTNMI,1.66 ± 0.8
4,EGGSF,0.059 ± 0.45
5,EGMNLV,0.196 ± 0.63
6,EGQCSNIVSKLAPSKIPYLR,-0.853 ± 0.66
7,EGRPECKARLSRYGRCRMNG,0.447 ± 0.48
8,EGRTWRGSRRGLHLDSPRMC,0.438 ± 0.95
9,EGVQKDC,inactive
10,EGVVMRISWKNTNGHVYEKG,2.06 ± 0.23
11,EIARHSFF,inactive
12,EIMFDWVMMEKKCRILHKKT,inactive
13,EINESRLYYNSLQAFAFMWA,-0.823 ± 0.57
14,EIQSSRRKITISMPNRSIVV,0.333 ± 0.25
15,EIRWSHIFERWV,0.628 ± 0.38
16,EKFGRRCCSFGRSVSEWVTK,0.999 ± 0.66
17,EKGLEFHLWLRPVLRACVGY,1.01 ± 1.1
18,ELIFFDDHFTDWYLCFNNFG,-1.29 ± 1.4
19,ELIIRTRLAVEELLMKACFV,-0.498 ± 0.39
20,ELSYSYQSGID,0.225 ± 0.67
21,ELYPGF,-0.219 ± 1.2
22,EMCFGLFGKLVWCETWLVKA,0.344 ± 0.32
23,EMFCC,0.554 ± 0.59
24,EMSRGHLHTSFRVYIQMLGG,4.54 ± 0.073
25,ENDVNDLRSPLDNQYLSRLP,inactive

row,Substance,amyloid nucleation score
1,ENMGELCA,inactive
2,ENRYMELTFQCSARRVG,2.81 ± 0.11
3,ENVGRTLAYIWMVWLSSQML,1.87 ± 0.67
4,EPARK,inactive
5,EPLLHSG,inactive
6,EPYDSLGYPNEDLGTGVFWG,-1.72 ± 2.7
7,EQCHRVFRAL,0.362 ± 0.55
8,EQHCNAMGVSRSGPWCDGEV,0.051 ± 0.85
9,EQNCVGVCSELNVFYGACVI,2.12 ± 0.48
10,EQRKRDHSRASSVSLKRYMG,0.657 ± 0.53
11,ERENAYPSIMLVCV,-0.092 ± 0.32
12,ERFVYALIEFCIETERLHTE,-0.459 ± 0.45
13,ERITIFVSVRTGKLRYLWPT,-0.837 ± 2.4
14,ERLYLSRYSMVIFVGLMCKS,-0.145 ± 0.61
15,ERPAAYATVTTSCKKTWDL,7.769 ± 0.06
16,ERSSAPECNFKYISYTGKS,-0.881 ± 0.48
17,ERYVLAPYQQTRRGNLQFRY,0.615 ± 0.63
18,ESAERGVRGSGRGRMNGGMM,-0.778 ± 0.98
19,ESIVRFKSSRSDKI,2.86 ± 0.075
20,ESSIVVGCRGSGWTQDAASQ,-0.465 ± 0.29
21,ESSLLLLDLGELRCYTFCLV,-0.944 ± 0.94
22,ESWAITWVGLYGCTLTVIRN,-0.148 ± 0.47
23,ETRTHWVRLAANNNFH,0.135 ± 0.88
24,EVDRWGICCPYW,1.88 ± 0.26
25,EVHGFNRCGLKSIRVHKVYA,0.839 ± 0.62

row,Substance,amyloid nucleation score
1,EVIRLDSIFLETGVRSCFQY,0.041 ± 0.73
2,EVITNTNGIVWSFDELYSVM,inactive
3,EVSLVVYTYVF,0.697 ± 0.69
4,EVTDVRLS,0.862 ± 0.62
5,EVVEWSLTKNCLFHALFIWV,-0.142 ± 0.3
6,EVYRVTAYVLFYGICQLTLE,-0.53 ± 0.32
7,EWKNGSHMWLQRLGESWNRL,-0.413 ± 0.35
8,EWVGQFEYEGTTLWVYLVTL,-0.419 ± 0.27
9,EWVVWVDCRGRYADNVSGGA,-0.558 ± 0.53
10,EYSIIYCICH,3.08 ± 0.14
11,FACMEGSLVM,inactive
12,FACYLNHAGGVSAHKYIFVT,0.351 ± 0.37
13,FADAASNPNAII,0.071 ± 0.4
14,FADLK,-0.88 ± 1.7
15,FAEENTSKFFSRKGEVCYMF,-0.113 ± 0.9
16,FALIR,0.81 ± 0.51
17,FATFRMSCPAKTVSVAVIGG,-0.069 ± 0.77
18,FAYRL,0.404 ± 0.44
19,FCCCNRLYQGRELWVKLVNR,4.94 ± 0.06
20,FCEHNVISYNESLRM,0.352 ± 0.53
21,FCGAVVFNVVWCYWNKIAVL,1.79 ± 0.12
22,FCGDVKLMYWSRFVLMKGHQ,-1.18 ± 1.1
23,FCICNRKRHNPSPEKKNA,-1.36 ± 0.91
24,FCLNLQYRSKMMHRANICL,0.159 ± 0.17
25,FCNLYVEWFLGDNVKVTRYR,3.58 ± 0.095

row,Substance,amyloid nucleation score
1,FCPDICTWKNWSMWMQLEDL,0.89 ± 0.54
2,FCSDFKSEYSIWDYWVWHKV,-0.306 ± 0.37
3,FCTCSLKQVM,inactive
4,FCVTNPWS,0.308 ± 0.58
5,FCVYKAVCIHYPSGFPLTIG,-0.238 ± 0.31
6,FCWKLGANIDVDECWRWAAD,1.29 ± 0.63
7,FCYFRVFVKSILDDWN,0.278 ± 0.31
8,FCYSTI,0.487 ± 0.81
9,FDLFVKGECFVVRPLATSTY,-0.66 ± 0.38
10,FDNVVENHSS,-0.074 ± 0.43
11,FDRSWRGFAGPRQRTGLVVF,-0.178 ± 0.51
12,FDSFKVRYN,-0.724 ± 0.7
13,FDSGLETTNIKMRYMVVYLR,-0.608 ± 0.38
14,FESMVTIILIDPFDVLIGDG,inactive
15,FFAIVGRKVCRGSIHFWSIT,1.23 ± 0.61
16,FFGNLVRWSNGYGDHCYSLN,2.51 ± 0.22
17,FFICKFL,-0.427 ± 1.9
18,FFIKE,-0.067 ± 0.48
19,FFLPILGPW,-0.729 ± 1.7
20,FFNAV,-0.353 ± 0.59
21,FFNVVYLTRANASYTGYSNI,5.41 ± 0.063
22,FFRIEATSVSLSPAYRLEDR,2.59 ± 0.28
23,FFVGEDRACSRYSLTTTITG,0.554 ± 0.64
24,FFVSIELITTRLLISQHNSY,-0.689 ± 0.89
25,FFVVELFVSHKLRLYRVRFG,0.412 ± 0.62

row,Substance,amyloid nucleation score
1,FFYRPYVFMCLFYMVSRAGS,4.41 ± 0.078
2,FGFHRVGSGIMRVVAQH,0.242 ± 0.44
3,FGGWNYYYLAVQYIFLDTGV,2.45 ± 0.15
4,FGHKPCLATQLTGPTKRCAA,0.959 ± 1.1
5,FGINVSIFTESLWLNYC,4.52 ± 0.052
6,FGIPST,1.05 ± 0.34
7,FGKLYF,-0.52 ± 0.98
8,FGLIKWWDGVWWLSDLRRLH,0.979 ± 0.65
9,FGLRYSMCHHGRGHLKWLYT,1.35 ± 0.65
10,FGMSRW,0.166 ± 0.78
11,FGPRSDAVLVLYFSYVSPLD,-1.79 ± 2.4
12,FGQNFEGIWPFVVKNRRLGQ,-1.12 ± 0.59
13,FGREPIRIKTYQSLKNRSLI,-0.013 ± 0.24
14,FGSMLNGVRYQ,0.747 ± 0.66
15,FGSRQVYWSRRMIVQGQVMK,-0.837 ± 0.71
16,FGVYLACIHRKVLECDR,-0.241 ± 1
17,FHALGCK,-0.38 ± 0.41
18,FHLSDGDWYCHVESVTWRAC,0.375 ± 0.87
19,FHRVDGVDCRTMYEGV,-0.937 ± 0.72
20,FHRWLDMWSLRRDFIGYGLG,0.095 ± 0.77
21,FHVDDHKWRLPDGELSRTAM,-0.341 ± 0.78
22,FHVHSVLISE,-0.166 ± 0.84
23,FHVLG,-1.35 ± 2.7
24,FHYLMDYSRLNDIPLEDWGW,-0.411 ± 0.73
25,FIASIG,0.274 ± 0.79

row,Substance,amyloid nucleation score
1,FICECCISLMIARHRALKPA,-1 ± 0.67
2,FICQDVNICCSL,7.305 ± 0.052
3,FIDIACAHFGMKSCVVL,1.32 ± 0.9
4,FIFIDMRRSWDISVKDTRST,6.802 ± 0.066
5,FIFLRYGLYVFFASLNGQGY,-0.33 ± 0.83
6,FIISRD,-0.028 ± 0.34
7,FILSCISPPYVHCFYCLMFS,0.854 ± 0.9
8,FINHKHKQDQVI,1.48 ± 0.49
9,FISVGAFGYTMILNVFN,5.445 ± 0.051
10,FKCLARFWYADYLRFVFARQ,0.297 ± 0.32
11,FKFMSLGMSWAT,1.61 ± 0.33
12,FKRCKRIPDPQSIGSRHFGA,0.568 ± 0.58
13,FKSYCVGLHDYGP,0.242 ± 0.99
14,FKWLTVRGNDRGILDDG,-0.158 ± 0.52
15,FLCLI,-2.52 ± 2.7
16,FLDMVVMGCEFRPSGGFSSV,-0.156 ± 0.38
17,FLENSTTSYNCYFNARWKCS,0.389 ± 0.35
18,FLFAMFNSISMKSAKLKWNR,3.91 ± 0.086
19,FLGLCS,-0.278 ± 0.4
20,FLICDGSDRQMF,0.315 ± 0.23
21,FLILLGLVEDGTLYAVRTVG,-0.849 ± 0.8
22,FLINGISSLCGLVVGLKFMD,0.755 ± 0.34
23,FLKFDTSMVVLGWTFLMESF,-0.023 ± 0.41
24,FLKLFHLRGFLYG,inactive
25,FLLHWFEYGIPNVYRSRRD,inactive
